Assay results published in patent US9260500B2, “Peptide and use thereof” (Takeda Pharmaceutical Company Limited, priority 2009, dated 2016).
Starred links: 1 amine or outer side, 2 acyl side, 3 side chain; linkers in the order of their positions; H or OH if unused. Non-standard residues stand in square brackets, D forms with d. No end group written: not given here. *: point of attachment. X11 = ((1S)-1-carboxy-3-methylbutyl)carbamoyl, CC(C)C[C@H](NC(=O)*)C(=O)O; tBuAla = CC(C)(C)C[C@H](N)C(=O)O; 4Pal = N[C@@H](Cc1ccncc1)C(=O)O; dHyp = O=C(O)[C@H]1C[C@H](O)CN1; Cha = N[C@@H](CC1CCCCC1)C(=O)O; Suc = O=C(CCC(=O)[*:2])[*:1]; Iva = CC[C@](C)(N)C(=O)O; Aib = CC(C)(N)C(=O)O; βAla = NCCC(=O)O

Columns and labels:
male C57EL/6J mice = experiment: 3-Days Continuous Subcutaneous Administration Test-1 (food intake suppressing activity); format: in vivo, mouse; conditions: 0.03 mg/kg/day, subcutaneous Alzet pump, food consumption over 3 days; relative to food intake suppression rate for PYY(3-36) (1 mg/kg/day) taken as 100%
Protocol: (4) Test Method: 3-Days Continuous Subcutaneous Administration Test-1
The food intake suppressing activity of the compound of the present invention was examined by the method described below.
The test compound was dissolved in 50% DMSO so that sustained release would occur at 0.03 mg/kg/day, and the solution was filled in the Alzet Pump (Alzet model: 1003D, sustained release rate: 1 μL/hr, capacity: 100 μL). After the filling, the pump was placed in a 2 mL Eppendorf tube containing 330 μL of physiological saline, and incubated at 37° C. for 2 hours or more. Thereafter, this pump was subcutaneously embedded in the back of each mouse by the method described below. After weighing, each male […] mice at 12-13 weeks of age (25° C., allowed to take food and water ad libitum; 12-hour bright-12-hour dark cycle, lighting turned on at 08:00) was anesthetized with diethyl ether; the skin in the upper back thereof was incised, and the above-mentioned pump was embedded subcutaneously. Thereafter, several drops of penicillin solution (100000 units/mL) were added to the incised part, and the incision was sutured using Michel's surgical needle. This mouse was returned to the rearing cage (reared alone), and given previously weighed food; 3 days later, the amount of remaining food was measured. Food consumption was calculated by subtracting the amount of remaining food after 3 days from the weight of the food given on the day of pump embedding. The food intake suppressing activity of each test compound was expressed as a food intake suppression rate (%) relative to the food intake suppression rate for PYY(3-36) (1 mg/kg/day) taken as 100%.

human Y2 receptor [1] = biological target: T1, human Y2 receptor (Homo sapiens, UniProt P49146); experiment: Human Y2 Receptor G Protein Binding Assay (GBA), [35S]GTPγS; format: biochemical; conditions: EC50 of test compound/EC50 of PYY(3-36) (PYY3-36 taken as 1), hY2R/CHO membrane fraction
T1 construct: expressed in transfected cells; membrane fraction
T1 sequence (P49146 1-381): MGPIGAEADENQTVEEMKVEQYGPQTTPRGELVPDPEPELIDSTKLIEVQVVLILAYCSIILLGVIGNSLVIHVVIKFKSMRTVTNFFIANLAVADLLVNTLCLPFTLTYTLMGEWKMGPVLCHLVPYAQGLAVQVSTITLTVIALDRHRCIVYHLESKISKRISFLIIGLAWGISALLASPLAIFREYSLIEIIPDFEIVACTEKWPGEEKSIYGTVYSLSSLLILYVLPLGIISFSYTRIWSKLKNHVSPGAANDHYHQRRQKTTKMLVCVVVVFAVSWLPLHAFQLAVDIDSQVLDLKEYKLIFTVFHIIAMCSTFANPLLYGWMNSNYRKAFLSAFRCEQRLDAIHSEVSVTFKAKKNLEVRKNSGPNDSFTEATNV
Summary of the method: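 Agonism measured as [35S]GTPγS binding, read by GF/C filtration and scintillation counting after 120 min at room temperature, using human Y2 membranes at 1 μg protein/mL in pH 7.4 Tris/MgCl2/NaCl/GDP buffer. Compound serially diluted 100 μM–1 nM; EC50 normalized to PYY(3-36) (ratio = compound/PYY).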

human Y2 receptor [2] = biological target: T1, human Y2 receptor; experiment: Receptor Binding Assay (RBA) for Human Y2, [125I]-PYY displacement on hY2R/CHO membrane fraction; conditions: IC50 of test compound/IC50 of PYY(3-36) (PYY(3-36) taken as 1)
Summary of the method: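 Read-out is [125I]-PYY displacement from membranes of CHO/dhfr− cells stably transfected with human Y2R. Membranes were obtained by disrupting cells in a buffer of 10 mM NaHCO3, 5 mM EDTA and protease inhibitors.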

Substance | food intake suppression rate (%) (male C57EL/6J mice) | GBA EC50 Ratio (human Y2 receptor [1]) | RBA IC50 Ratio (human Y2 receptor [2])
2-Methylbutanoyl-[D-Pro24, Pya(4)26, Cha27,36, Aib28,31, Lys30]-PYY(23-36) ({2‑methylbutanoyl}-S[dP]R[4Pal][Cha][Aib]NK[Aib]TRQR[Cha]-NH2) [compound No. 276] | 16% | 0.78 | 0.54
3-Carboxypropionyl-[D-Hyp24, Iva25, Pya(4)26, Cha27,36, Leu(Me)28, Lys30, Aib31]-PYY(23-36) (Suc-S[dHyp][Iva][4Pal][Cha][tBuAla]NK[Aib]TRQR[Cha]-NH2; SMILES CC[C@](C)(NC(=O)[C@H]1C[C@H](O)CN1C(=O)[C@H](CO)NC(=O)CCC(=O)O)C(=O)N[C@@H](Cc1ccncc1)C(=O)N[C@@H](CC1CCCCC1)C(=O)N[C@@H](CC(C)(C)C)C(=O)N[C@@H](CC(N)=O)C(=O)N[C@@H](CCCCN)C(=O)NC(C)(C)C(=O)N[C@H](C(=O)N[C@@H](CCCNC(=N)N)C(=O)N[C@@H](CCC(N)=O)C(=O)N[C@@H](CCCNC(=N)N)C(=O)N[C@@H](CC1CCCCC1)C(N)=O)[C@@H](C)O) [compound No. 350] | 41% | 1.9 | 0.92
3-Carboxypropionyl-[D-Pro24, Pya(4)26, Cha27,36, Aib28,31, Lys30]-PYY(23-36) (Suc-S[dP]R[4Pal][Cha][Aib]NK[Aib]TRQR[Cha]-NH2; SMILES C[C@@H](O)[C@H](NC(=O)C(C)(C)NC(=O)[C@H](CCCCN)NC(=O)[C@H](CC(N)=O)NC(=O)C(C)(C)NC(=O)[C@H](CC1CCCCC1)NC(=O)[C@H](Cc1ccncc1)NC(=O)[C@H](CCCNC(=N)N)NC(=O)[C@H]1CCCN1C(=O)[C@H](CO)NC(=O)CCC(=O)O)C(=O)N[C@@H](CCCNC(=N)N)C(=O)N[C@@H](CCC(N)=O)C(=O)N[C@@H](CCCNC(=N)N)C(=O)N[C@@H](CC1CCCCC1)C(N)=O) [compound No. 217] | 28% | 1.2 | 0.96
3-Carboxypropionyl-[D-Pro24, Pya(4)26, Cha27,36, Aib28,31, Lys30]-PYY(24-36) (Suc-[dP]R[4Pal][Cha][Aib]NK[Aib]TRQR[Cha]-NH2; SMILES C[C@@H](O)[C@H](NC(=O)C(C)(C)NC(=O)[C@H](CCCCN)NC(=O)[C@H](CC(N)=O)NC(=O)C(C)(C)NC(=O)[C@H](CC1CCCCC1)NC(=O)[C@H](Cc1ccncc1)NC(=O)[C@H](CCCNC(=N)N)NC(=O)[C@H]1CCCN1C(=O)CCC(=O)O)C(=O)N[C@@H](CCCNC(=N)N)C(=O)N[C@@H](CCC(N)=O)C(=O)N[C@@H](CCCNC(=N)N)C(=O)N[C@@H](CC1CCCCC1)C(N)=O) [compound No. 303] | 20% | 1.2 | 1.2
3-Carboxypropionyl-[Gln23, D-Pro24, Pya(4)26, Cha27,36, Aib28,31, Lys30]-PYY(23-36) (Suc-Q[dP]R[4Pal][Cha][Aib]NK[Aib]TRQR[Cha]-NH2; SMILES C[C@@H](O)[C@H](NC(=O)C(C)(C)NC(=O)[C@H](CCCCN)NC(=O)[C@H](CC(N)=O)NC(=O)C(C)(C)NC(=O)[C@H](CC1CCCCC1)NC(=O)[C@H](Cc1ccncc1)NC(=O)[C@H](CCCNC(=N)N)NC(=O)[C@H]1CCCN1C(=O)[C@H](CCC(N)=O)NC(=O)CCC(=O)O)C(=O)N[C@@H](CCCNC(=N)N)C(=O)N[C@@H](CCC(N)=O)C(=O)N[C@@H](CCCNC(=N)N)C(=O)N[C@@H](CC1CCCCC1)C(N)=O) [compound No. 218] | 27% | 1.9 | 2
4-Imidazolecarbonyl-[Aib24,28,31, Iva25, Pya(4)26, Cha27,36, Lys30]-PYY(23-36) [compound No. 344] | 22% | 1.7 | 1.9
4-Imidazolecarbonyl-[D-Hyp24, Iva25,28, Pya(4)26, Cha27,36, Lys30, Adb31]-PYY(23-36) [compound No. 337] | 49% | 1.3 | 0.99
Ac-[D-Pro24, Cha27,36, Leu(Me)28, Lys30, Aib31]-PYY(23-36) (Ac-S[dP]RH[Cha][tBuAla]NK[Aib]TRQR[Cha]-NH2; SMILES CC(=O)N[C@@H](CO)C(=O)N1CCC[C@@H]1C(=O)N[C@@H](CCCNC(=N)N)C(=O)N[C@@H](Cc1c[nH]cn1)C(=O)N[C@@H](CC1CCCCC1)C(=O)N[C@@H](CC(C)(C)C)C(=O)N[C@@H](CC(N)=O)C(=O)N[C@@H](CCCCN)C(=O)NC(C)(C)C(=O)N[C@H](C(=O)N[C@@H](CCCNC(=N)N)C(=O)N[C@@H](CCC(N)=O)C(=O)N[C@@H](CCCNC(=N)N)C(=O)N[C@@H](CC1CCCCC1)C(N)=O)[C@@H](C)O) [compound No. 136] | 10% |  | 
Ac-[D-Pro24, Phe26, Cha27,36, Aib28,31, Lys30]-PYY(23-36) (Ac-S[dP]RF[Cha][Aib]NK[Aib]TRQR[Cha]-NH2; SMILES CC(=O)N[C@@H](CO)C(=O)N1CCC[C@@H]1C(=O)N[C@@H](CCCNC(=N)N)C(=O)N[C@@H](Cc1ccccc1)C(=O)N[C@@H](CC1CCCCC1)C(=O)NC(C)(C)C(=O)N[C@@H](CC(N)=O)C(=O)N[C@@H](CCCCN)C(=O)NC(C)(C)C(=O)N[C@H](C(=O)N[C@@H](CCCNC(=N)N)C(=O)N[C@@H](CCC(N)=O)C(=O)N[C@@H](CCCNC(=N)N)C(=O)N[C@@H](CC1CCCCC1)C(N)=O)[C@@H](C)O) [compound No. 345] | 10% |  | 
Ac-[Glu23, D-Pro24, Cha27,28,36, Lys30, Aib31]-PYY(23-36) (Ac-E[dP]RH[Cha][Cha]NK[Aib]TRQR[Cha]-NH2; SMILES CC(=O)N[C@@H](CCC(=O)O)C(=O)N1CCC[C@@H]1C(=O)N[C@@H](CCCNC(=N)N)C(=O)N[C@@H](Cc1c[nH]cn1)C(=O)N[C@@H](CC1CCCCC1)C(=O)N[C@@H](CC1CCCCC1)C(=O)N[C@@H](CC(N)=O)C(=O)N[C@@H](CCCCN)C(=O)NC(C)(C)C(=O)N[C@H](C(=O)N[C@@H](CCCNC(=N)N)C(=O)N[C@@H](CCC(N)=O)C(=O)N[C@@H](CCCNC(=N)N)C(=O)N[C@@H](CC1CCCCC1)C(N)=O)[C@@H](C)O) [compound No. 137] | 25% |  | 
[(1S)-1-carboxy-3-methylbutyl]carbamoyl-[D-Pro24, Cha27,36, Leu(Me)28, Lys30, Aib31]-PYY(23-36) (X11-S[dP]RH[Cha][tBuAla]NK[Aib]TRQR[Cha]-NH2; SMILES CC(C)C[C@H](NC(=O)N[C@@H](CO)C(=O)N1CCC[C@@H]1C(=O)N[C@@H](CCCNC(=N)N)C(=O)N[C@@H](Cc1c[nH]cn1)C(=O)N[C@@H](CC1CCCCC1)C(=O)N[C@@H](CC(C)(C)C)C(=O)N[C@@H](CC(N)=O)C(=O)N[C@@H](CCCCN)C(=O)NC(C)(C)C(=O)N[C@H](C(=O)N[C@@H](CCCNC(=N)N)C(=O)N[C@@H](CCC(N)=O)C(=O)N[C@@H](CCCNC(=N)N)C(=O)N[C@@H](CC1CCCCC1)C(N)=O)[C@@H](C)O)C(=O)O) [compound No. 253] | 19% |  | 
[βAla23, D-Pro24, Cha27,28,36, Aib31]-PYY(23-36) ([βAla][dP]RH[Cha][Cha]NL[Aib]TRQR[Cha]-NH2; N-terminus assumed; SMILES CC(C)C[C@H](NC(=O)[C@H](CC(N)=O)NC(=O)[C@H](CC1CCCCC1)NC(=O)[C@H](CC1CCCCC1)NC(=O)[C@H](Cc1c[nH]cn1)NC(=O)[C@H](CCCNC(=N)N)NC(=O)[C@H]1CCCN1C(=O)CCN)C(=O)NC(C)(C)C(=O)N[C@H](C(=O)N[C@@H](CCCNC(=N)N)C(=O)N[C@@H](CCC(N)=O)C(=O)N[C@@H](CCCNC(=N)N)C(=O)N[C@@H](CC1CCCCC1)C(N)=O)[C@@H](C)O) [compound No. 116] |  | 1.2 | 1.7
